Measurements taken from patent publication US20260258084A1, “New Peptides as Selective IL-23 Receptor Antagonists” (Sanofi, priority 2022, published 2026).
Starred links: 1 amine or outer side, 2 acyl side, 3 side chain; linkers in the order of their positions; H or OH if unused. Positions of bridges follow the written chain, without caps; N, C: chain ends. Non-standard residues stand in square brackets, D forms with d. Yde = (2S)-2-amino-3-[4-[2-(dimethylamino)ethoxy]phenyl]propanoic acid, CN(C)CCOc1ccc(C[C@H](N[*:1])C(=O)[*:2])cc1; Phe(4-OMe) = COc1ccc(C[C@H](N[*:1])C(=O)[*:2])cc1; Trp(7-Me) = Cc1cccc2c(C[C@H](N)C(=O)O)c[nH]c12; 2Nal = N[C@@H](Cc1ccc2ccccc2c1)C(=O)O; εLys = N[C@@H](CCCCN[*:1])C(=O)[*:2]; AEF = NCCOc1ccc(C[C@H](N)C(=O)O)cc1; 3Pal = N[C@@H](Cc1cccnc1)C(=O)O; Dad = desamino-aspartamic acid; Lys(Me) = CNCCCC[C@H](N)C(=O)O; αMeL = CC(C)C[C@](C)(N)C(=O)O; Nmapt = not defined here; Thp = NC1(C(=O)O)CCOCC1; Aib = CC(C)(N)C(=O)O; Ahx = NCCCCCC(=O)O; Ava = NCCCCC(=O)O; Sar = CNCC(=O)O

T1: IL-23 receptor on the surface of HEK-Blue IL-23 cells (UniProt Q5VWK5 24-629, limits assumed)
T1 sequence (looked up): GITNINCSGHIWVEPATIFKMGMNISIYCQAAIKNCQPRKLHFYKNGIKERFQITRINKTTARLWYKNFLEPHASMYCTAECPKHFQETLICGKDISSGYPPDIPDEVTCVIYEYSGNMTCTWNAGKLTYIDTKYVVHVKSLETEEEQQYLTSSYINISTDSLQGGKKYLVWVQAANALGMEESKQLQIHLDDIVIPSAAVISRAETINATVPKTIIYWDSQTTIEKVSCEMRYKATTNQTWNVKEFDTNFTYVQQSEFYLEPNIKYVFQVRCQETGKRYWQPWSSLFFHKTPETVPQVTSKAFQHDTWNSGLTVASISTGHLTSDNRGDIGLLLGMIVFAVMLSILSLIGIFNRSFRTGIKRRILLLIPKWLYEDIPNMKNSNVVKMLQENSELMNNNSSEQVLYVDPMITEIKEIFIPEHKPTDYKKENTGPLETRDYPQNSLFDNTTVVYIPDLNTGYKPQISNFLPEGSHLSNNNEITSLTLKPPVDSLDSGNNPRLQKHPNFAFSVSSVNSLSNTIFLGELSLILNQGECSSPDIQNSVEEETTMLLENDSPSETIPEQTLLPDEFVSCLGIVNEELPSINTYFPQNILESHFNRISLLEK


Biological target: T1, IL-23 receptor on the surface of …
Assay: cell-based or functional assay

| Binder | pSTAT3 (nM) |
| --- | --- |
| [Ahx]CNTWQC[Phe(4-OMe)][2Nal][Aib]DNN-NH2 (lactam N-11; disulfide 2-7; SMILES COc1ccc(C[C@@H]2NC(=O)[C@@H]3CSSC[C@H](NC(=O)CCCCCNC(=O)C[C@@H](C(=O)N[C@@H](CC(N)=O)C(=O)N[C@@H](CC(N)=O)C(N)=O)NC(=O)C(C)(C)NC(=O)[C@H](Cc4ccc5ccccc5c4)NC2=O)C(=O)N[C@@H](CC(N)=O)C(=O)N[C@@H]([C@@H](C)O)C(=O)N[C@@H](Cc2c[nH]c4ccccc24)C(=O)N[C@@H](CCC(N)=O)C(=O)N3)cc1) [Compound of SEQ ID NO: 3] | 17.2 |
| [Ava]CNT[Trp(7-Me)]LC[Yde][2Nal][Thp]EN[3Pal][Sar]-NH2 (lactam N-11; disulfide 2-7; SMILES Cc1cccc2c(C[C@@H]3NC(=O)[C@H]([C@@H](C)O)NC(=O)[C@H](CC(N)=O)NC(=O)[C@@H]4CSSC[C@H](NC(=O)[C@H](CC(C)C)NC3=O)C(=O)N[C@@H](Cc3ccc(OCCN(C)C)cc3)C(=O)N[C@@H](Cc3ccc5ccccc5c3)C(=O)NC3(CCOCC3)C(=O)N[C@H](C(=O)N[C@@H](CC(N)=O)C(=O)N[C@@H](Cc3cccnc3)C(=O)N(C)CC(N)=O)CCC(=O)NCCCCC(=O)N4)c[nH]c12) [Compound of SEQ ID NO: 24] | 0.59 |
| [Ava]C[εLys](Ac)WQC[Yde][2Nal][Thp]EA[dL]-NH2 (lactam N-10; disulfide 2-6; also: Cys2 carboxyl bonded to Lys3 epsilon-NH2 (isopeptide), Lys3 alpha-N acetylated) [Compound of SEQ ID NO: 33] | 53.8 |
| [Ava]CNT[Trp(7-Me)]K(Ac)C[Yde][2Nal][Aib]ENH-NH2 (lactam N-11; disulfide 2-7; SMILES CC(=O)NCCCC[C@@H]1NC(=O)[C@H](Cc2c[nH]c3c(C)cccc23)NC(=O)[C@H]([C@@H](C)O)NC(=O)[C@H](CC(N)=O)NC(=O)[C@@H]2CSSC[C@H](NC1=O)C(=O)N[C@@H](Cc1ccc(OCCN(C)C)cc1)C(=O)N[C@@H](Cc1ccc3ccccc3c1)C(=O)NC(C)(C)C(=O)N[C@H](C(=O)N[C@@H](CC(N)=O)C(=O)N[C@@H](Cc1c[nH]cn1)C(N)=O)CCC(=O)NCCCCC(=O)N2) [Compound of SEQ ID NO: 20] | 3.12 |
| [Ava]C[εLys](Ac)WQC[Yde][2Nal][Aib]ENG-NH2 (lactam N-10; disulfide 2-6; also: Cys2 carboxyl bonded to Lys3 epsilon-NH2 (isopeptide), Lys3 alpha-N acetylated) [Compound of SEQ ID NO: 29] | 8.16 |
| [Ava]CNTWQC[Yde][2Nal][Thp]ENN-NH2 (lactam N-11; disulfide 2-7; SMILES C[C@@H](O)[C@@H]1NC(=O)[C@H](CC(N)=O)NC(=O)[C@@H]2CSSC[C@H](NC(=O)[C@H](CCC(N)=O)NC(=O)[C@H](Cc3c[nH]c4ccccc34)NC1=O)C(=O)N[C@@H](Cc1ccc(OCCN(C)C)cc1)C(=O)N[C@@H](Cc1ccc3ccccc3c1)C(=O)NC1(CCOCC1)C(=O)N[C@H](C(=O)N[C@@H](CC(N)=O)C(=O)N[C@@H](CC(N)=O)C(N)=O)CCC(=O)NCCCCC(=O)N2) [Compound of SEQ ID NO: 26] | 3.37 |
| [Ava]C[εLys](Ac)WQC[Yde][2Nal][αMeL]ENG-NH2 (lactam N-10; disulfide 2-6; also: Cys2 carboxyl bonded to Lys3 epsilon-NH2 (isopeptide), Lys3 alpha-N acetylated) [Compound of SEQ ID NO: 31] | 5.23 |
| [Ava]C[εLys](Ac)WQC[Yde][2Nal][Thp]ENG-NH2 (lactam N-10; disulfide 2-6; also: Cys2 carboxyl bonded to Lys3 epsilon-NH2 (isopeptide), Lys3 alpha-N acetylated) [Compound of SEQ ID NO: 30] | 5.41 |
| [Ava]C[εLys](Ac)WQC[Yde][2Nal][Aib]EAG-NH2 (lactam N-10; disulfide 2-6; also: Cys2 carboxyl bonded to Lys3 epsilon-NH2 (isopeptide), Lys3 alpha-N acetylated) [Compound of SEQ ID NO: 32] | 20.5 |
| [Nmapt]CKWQC[AEF][2Nal][Thp]EA[dL]-NH2 (lactam N-10; disulfide 2-6; not fully specified (residue 3); printed as Nmapt(§1)-C(§3)(@2)-K[aAc](@3)-W-Q-C(@2)-Yae-Nal-Thp-E(§1)-A-(D-Leu)-NH2; reading uncertain; also: Cys2 carboxyl joined to Lys3 epsilon-NH2 (isopeptide bond)) [Compound of SEQ ID NO: 34] | 13.3 |
| [Dad]CNTWQC[Yde][2Nal][Aib][Lys(Me)]NN-NH2 (lactam N-11; disulfide 2-7) [Compound of SEQ ID NO: 25] | 39.2 |
| [Ava]CNTWQC[Yde][2Nal][αMeL]ENN-NH2 (lactam N-11; disulfide 2-7; SMILES CC(C)C[C@]1(C)NC(=O)[C@H](Cc2ccc3ccccc3c2)NC(=O)[C@H](Cc2ccc(OCCN(C)C)cc2)NC(=O)[C@@H]2CSSC[C@H](NC(=O)CCCCNC(=O)CC[C@@H](C(=O)N[C@@H](CC(N)=O)C(=O)N[C@@H](CC(N)=O)C(N)=O)NC1=O)C(=O)N[C@@H](CC(N)=O)C(=O)N[C@@H]([C@@H](C)O)C(=O)N[C@@H](Cc1c[nH]c3ccccc13)C(=O)N[C@@H](CCC(N)=O)C(=O)N2) [Compound of SEQ ID NO: 27] | 1.71 |
| [Ava]CNT[Trp(7-Me)]K(Ac)C[Yde][2Nal][Thp]ENH-NH2 (lactam N-11; disulfide 2-7; SMILES CC(=O)NCCCC[C@@H]1NC(=O)[C@H](Cc2c[nH]c3c(C)cccc23)NC(=O)[C@H]([C@@H](C)O)NC(=O)[C@H](CC(N)=O)NC(=O)[C@@H]2CSSC[C@H](NC1=O)C(=O)N[C@@H](Cc1ccc(OCCN(C)C)cc1)C(=O)N[C@@H](Cc1ccc3ccccc3c1)C(=O)NC1(CCOCC1)C(=O)N[C@H](C(=O)N[C@@H](CC(N)=O)C(=O)N[C@@H](Cc1c[nH]cn1)C(N)=O)CCC(=O)NCCCCC(=O)N2) [Compound of SEQ ID NO: 21] | 2.67 |
| [Dad]CNT[Trp(7-Me)]K(Ac)C[Yde][2Nal][αMeL]KNH-NH2 (lactam N-11; disulfide 2-7) [Compound of SEQ ID NO: 23] | 3.32 |
| [Ava]CNT[Trp(7-Me)]K(Ac)C[Yde][2Nal][αMeL]ENH-NH2 (lactam N-11; disulfide 2-7; SMILES CC(=O)NCCCC[C@@H]1NC(=O)[C@H](Cc2c[nH]c3c(C)cccc23)NC(=O)[C@H]([C@@H](C)O)NC(=O)[C@H](CC(N)=O)NC(=O)[C@@H]2CSSC[C@H](NC1=O)C(=O)N[C@@H](Cc1ccc(OCCN(C)C)cc1)C(=O)N[C@@H](Cc1ccc3ccccc3c1)C(=O)N[C@@](C)(CC(C)C)C(=O)N[C@H](C(=O)N[C@@H](CC(N)=O)C(=O)N[C@@H](Cc1c[nH]cn1)C(N)=O)CCC(=O)NCCCCC(=O)N2) [Compound of SEQ ID NO: 22] | 1.37 |
